Target: the molecule itself
Test: SAXS

B1: simian virus 40 (SV40) major capsid protein VP1, as soluble VP1 pentamers (natural protein)
chain: APTKRKGSCPGAAPKKPKEPVQVPKLVIKGGIEVLGVKTGVDSFTEVECFLNPQMGNPDEHQKGLSKSLAAEKQFTDDSPDKEQLPCYSVARIPLPNINEDLTCGNILMWEAVTVKTEVIGVTAMLNLHSGTQKTHENGAGKPIQGSNFHFFAVGGEPLELQGVLANYRTKYPAQTVTPKNATVDSQQMNTDHKAVLDKDNAYPVECWVPDPSKNENTRYFGTYTGGENVPPVLHITNTATTVLLDEQGVGPLCKADSLYVSAVDICGLFTNTSGTQQWKGLPRYFKITLRKRSVKNPYPISFLLSDLINRRTQRVDGQPMIGMSSQVEEVRVYEDTEELPGDPDMIRYIDEFGQTTTRMQ
  binding result: binds

Reference: article PMC6356861 (ACS Omega, 2019)
